From patent US10080776B2, “Molecular marker for cancer stem cell” (Sapporo Medical University, priority 2008, dated 2018)
Entries after “also recorded” stand apart in the source; their conditions may differ. No end group written: not given here.

Assays:
[1] = biological target: HLA-A2402 (Homo sapiens, UniProt P04439, D101N/D140Y/D185E/E176V/E190D/F33S/G103R/G107R/I119L/I121M/I306V/K335N/L105A/L180Q/L300P/N151K/N90K/Q86E/Q94H/R106L/R138H/R89G/T104I/T345S/V100E/W191G/Y123F); test: HLA-A24 peptide binding assay of or7c1-derived peptides; settings: T2A24 cells, fluorescence of HLA-A24 antibody
Procedure: Cell line T2A24 for which HLA-A2402 had been gene-transferred to peptide transporter-deficient T2 cells was used in an assay, and experiment was carried out in the same way as in Experimental Example 16. In this Experimental Example, SL-8 was used as a negative control, and survivin-2B (SEQ ID No: 72) was used as a positive control.
The peptides below were prepared in the same way as in Experimental Example 26, and a binding assay was carried out.

[2] = tested on: T2A24 cells pulsed with peptide; test: Cr51 cytotoxicity assay: SOX2 peptide-induced CTLs against peptide-pulsed T2A24; assay type: cell-based, human; settings: Cr51 release, 4 hours
Procedure: 50 mL of peripheral blood from HLA-A24-positive lung cancer patients who gave informed consent and HLA-A24-positive healthy subjects was centrifuged in a Ficoll-Conray density gradient, and peripheral blood mononuclear cells (PBMC) were separated and collected. Subsequently, lymphocytes of PBMC were separated into CD8-positive lymphocytes and CD8-negative lymphocytes using CD8 MACS beads.
In a 96 well plate, 200000 cells/well of CD8-negative lymphocytes and the above-mentioned HLA-A24 binding SOX2 peptide were mixed, and the mixture was allowed to stand at room temperature for 2 hours, and then subjected to a degree of 100 Gy radiation treatment. […] The peptide-specific reactivity of the induced CTLs was evaluated by a cytotoxicity assay or an ELISPOT assay.
Cr^51 was added to T2A24 cells, the cells were cultured in RPMI medium at 37° C. for 1 hour, radiolabeled, and washed with RPMI medium 4 times. […] Supernatant was then collected, and the gamma-ray dose was measured using a gamma counter.
The dose when only RPMI medium and peptide-pulsed T2A24 were cultured was defined as spontaneous release (SPR), the dose when cell lysate (2% NP40) and peptide-pulsed T2A24 were cultured was defined as maximum release (MXR), and cellular cytotoxicity was calculated as (measured value−SPR)/(MXR−SPR)×100.

[3] = tested on: T2A24 pulsed with peptide; test: 51Cr release assay with CTLs and or7c1 peptide-pulsed T2A24; assay type: cell-based, human; settings: T2A24 pulsed with 5 μg/mL peptide, E/T ratios of 20 and 6
Procedure: PBMC was separated from whole blood (heparin added) sampled from a test subject using Lymphoprep (Nycomed). After PBMC was cultured at 37° C. for 24 hours, an experiment was carried out using non-adherent cells. In order to obtain CD8-positive cells from the non-adherent cells, CD8-positive and -negative cells were separated using a magnetic cell separation system (Miltenyi Biotech). For CD8-negative cells, 100 U/mL IL-2 and 1 μg/mL PHA-P were added to AIM-V medium (Life Technologies) to give PHA-blast. The CD8-positive cells were cultured in AIM-V medium at 37° C. and stimulated with ⅕ the amount of PHA-blast three times every 7 days (0th day, 7th day, 14th day). From the 8th day, 50 U/mL of IL-2 was added to the medium, and thereafter every 3 to 4 days the medium was exchanged, and 50 U/mL of IL-2 was added. The cells were subjected as CTLs to ELISPOT on the 21st day and a ^51Cr release assay on the 28th day.
In an assay for measuring cellular cytotoxicity, cells were labeled with radioactive ^51Cr, and cellular cytotoxicity by CTLs was measured. CTLs were used as effector cells, and T2A24, K562, Sw480, and Sw480 constitutively expressing or7c1 were used as target cells. […] Kill %=(measured release−spontaneous release)×100/(maximum release−spontaneous release)

Substance	binding to HLA-A2402 [1]	also measured
FYGTGFGVYL (peptide fragment of OR7C1) [251(10)]	binding to HLA-A2402 was observed	–
MYTMVTPML (peptide fragment of OR7C1) [277(9)]	binding to HLA-A2402 was observed	–
RYLRDQQLLGI [HIV-derived peptide, reference compound]	–	cellular cytotoxicity of CTLs against peptide-pulsed T2A24 [2]: hardly any radiation due to damaged cells was detected
KYRPRRKTKTL [SOX2_109 peptide, KYRPRRKTKTL]	–	cellular cytotoxicity of CTLs against peptide-pulsed T2A24 [2]: strong radiation was detected; also recorded: extremely high level of cytotoxicity
HYTViMNPQL (HYTVIMNPQL; not fully specified (residue 5); printed as HYTViMNPQL) [131(10)]	binding to HLA-A2402 was observed	–
TYAGCLSQIF [93(10), TYAGCLSQIF]	–	cellular cytotoxicity (kill %) [3]: higher cellular cytotoxicity
MYLVTFTGNL (peptide fragment of OR7C1) [34(10)]	binding to HLA-A2402 was observed	–
